Measurements published in the nanobody polyreactivity screen of Harvey et al. (2022).

Assay: yeast display, Sf9 membrane polyspecificity reagent, FACS + sequencing; frameworks hold sequencing errors
Method in brief: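 Nanobodies came from a synthetic yeast display library in Saccharomyces cerevisiae BJ5465, induced with galactose for 36–48 hours and stained for 1 hour at 4 °C with 10% biotinylated, detergent-solubilized Sf9 membrane reagent. Cells were enriched on streptavidin microbeads and then FACS-sorted, with low and high (top ~1%) gates set on anti-HA fluorescence for expression and streptavidin fluorescence for reagent binding. Each polyreactivity label reflects the gate a clone came from. Genes were amplified by colony PCR, sequenced by MiSeq 2 × 250 and filtered by CDR length.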

Row | Sequence | polyreactivity (PSR sort gate)
1 | QVQLVESRGGLVQAGGSLRLSCAASGSIFSYYPMGWYRQAPGKERELVAAISSRGGSTYYADSVKGRFTISRDNAKNTFYLQMNCLKPEDTAVYYCDDEWTSWFGVTYDYWGQGTQVTVSS | high polyreactivity
2 | QVQLVESRGGLVQAGGSLRLSCAASGSNFTLYAMGWYRQAPGKERELGATITISGGGTYYADSVKGRFTISRDNAKNTVYLQMNSLKPEDTAVYYCAVKSIVRRKGYTYYRYDYWGQGTQVTVSS | high polyreactivity
3 | QVQLVESRGGLVQAGGSLRLSCAASGSTFFHYAMGWYRQAPGKDRELVAAIDSNGGSTYYADSVKGRFTISRDNAKNTVYLPMNSLKPEDTAVYYCAADDLAEFEYDYWGQGTQVTVSS | low polyreactivity
4 | QVQLVESRGGLVQAGGSLRLSCAASGSTFGWYAMGWYRQAPGKERELVASITSGGRTNYADSVKGRFTISRDNAKITVYLQMNSLKPEDTAVYYCAKRVYGSYSLYDYWGQGTQVNVSS | low polyreactivity
5 | QVQLVESRGGLVQAGGSLRLSCAASGSTFKRYTMGWYRQAPGKESELVAAISTSSGSTYYADCVKGRFTISRDNAKNTVYLQMNSLKPDDSAVYYCAAVRHRQSYPKYNYWGQGTQVTVSS | high polyreactivity
6 | QVQLVESRGGLVQAGGSLRLSCAASGTTINFYPMGWYRQAPGKERELVAAIRVSSGSTYYADSVKGRFTISRDNAKNNVYLQMNSLKPEDTAVYYCAAFLKDRSPRDGYDYWGQGSQVTVSS | high polyreactivity
7 | QVQLVESRGGLVQAGGSLRLSCAASGYIINAYARGWYRQAPGKERELVAAISWSSDSTYYADSVKGRFTISRDIAKNTVYLQMNSLKPEVTAVYYCAAPYITPYGTYVFSSDYWGQGTQVTVSS | low polyreactivity
8 | QVQLVESRGGLVQAGGSLRLSCAASGYILWRYAMGWYRQAPGKERELVASISSGVSTNYADSVKGRFTISRDNAKNTVYLQMYSLKPEDTAVYYCKTGRWLLGSMEYWGQGTEVTVSS | low polyreactivity
9 | QVQLVESRGGLVQAGGSLRLSCAASGYTFYGYAMGWYRQAPGKERELVAAISGSGGSTYYADSVKGRFTISRDNAKNTVYLQMNSLKREDTAVYYCNKARYAIYRGDGYDYWGQGTQVTVSS | high polyreactivity
10 | QVQLVESRGGLVQAGGSLRLSCAATGFTIYYYAMGWYRQAPGKERELVAAITGSGGSTYYADSVKGRFTISRDNAKNTVYLQMNSLKPEDTAVYYCARRYQVGWYYKYDYWGQGTQVTVSS | high polyreactivity
11 | QVQLVESRGGLVQAGGSLRLSCADSGITFYVYTMGWNIKAPGKQRDLVASISGRGGSTYYAVSVKGRFTISRDNAKNTVYLQMNSLKPEDTAVYYCEAYRLRFWSMDYWGQGTQVTGSS | high polyreactivity
12 | QVQLVESRGGLVQAGGSLRLSCPASGSIFPDNAMGWYRQAPGKERELDAAITRGGSTYYADSEKGRFTISRDNAKNTVYLQMNSLKPEDTAVYYCAVVRYYVSMDNWGQGTQVTVSS | high polyreactivity
13 | QVQLVESRGGLVQAGGSLRLSCSASGRIFTTYAMGWYRQAPGKEREFVAAISRSGGSTYYADSVKGRFTISRDNAKNTVYLQMNSLKPEDTAVYYCAAVPTSNSLRSSFSYWGQGSQVTVSS | high polyreactivity
14 | QVQLVESRGGLVQAGGSLSLSCAASGSTYNASAMGWYRQATGKERELVAAISSGGSTYYADSVKGRFTISRDNANNTVYLQMNSLKPEDTAVLYCAAVLTGHYYRFDYWGQGTQVNVSS | low polyreactivity
15 | QVQLVESRGGLVQAGGTLRLSCAASGSTFAVNAMGWYRQAPGKERELVATITGSGGSTYYADSVKGRFTISRDNAKNTVYLQLNSLKPEDTAVYYCATDLVFDKRYWYDYWGQGTQVTVSS | low polyreactivity
16 | QVQLVESRGGVVQAGGSLRLRCAASGRTFYRNVMGWSRQAPGKERELVAAITGDGGSTYYADSVKGRFTISRDNAKNTVYVQMNSQKAEVTAVYYCAASVYPQKRFFYWGHGTQVTVSS | high polyreactivity
17 | QVQLVESRGVLVQAGGSLRLSCAASGSIFYFYAMGWYRQAPGKERELVAAISWSGGSTYYADSVKGRFTISRDTSKNTVYLQMHSLKPEDTPVYYCNAADYWYWENDYWGQGTQVTVSS | low polyreactivity
18 | QVQLVESRGVLVQAGGSLRLSCAASGSTFTGYAMGWYRQAPGKERELVAGITGSGGSTYYADSVMGRFTISRDNAKITVYFQMNSLKPVDTAVYYCAAACWYHYVWLDYFWGQGTQVTVSS | low polyreactivity
19 | QVQLVESRGVLVQAGGSLRLSCAGSGSTILRYALGWYRQAPGKERELVAAINWSGGGTSYADSVKGRFTISRDNAKNTVYFQMNSLKPEDTAVYYCAAYFRYSNYWSEYWGQGTQVTVSS | high polyreactivity
20 | QVQLVESRRGLVQAGGSLRLSCAASGRIFYRYALGWYRQAPGKEREFVAAISRSGGTTYYADSVKGRFTISRDNAKNTVYLQMNSLNPEDTAVYYCAAGGSFWYFSPRYGYWGQGTQVTVSS | high polyreactivity
21 | QVQLVESRRGLVQARGSLRLSCAASGITFRWYAMGWYRQAPGKERELVAAITTGGSTKYADSVKGRFTISRDNAKNTVYLQMNSLKPEDTAVYYCAARGRYAGGYWGQGTQVTVSS | high polyreactivity
22 | QVQLVESRVGLVQAGGSLRLSCAASGITFYGYAMGWYRQAPGKERELVAAITSGGSTYYADTVKGRFTISRDNAKNTVYFQMNSLKPEDTAVYYCAAYLRRAYVHSYERYYWGQGTQVTVSS | low polyreactivity

Row | Sequence | polyreactivity (PSR sort gate)
23 | QVQLVESRWRFVQAGGSLRLSCAASGSIFADYAMGWYRQAPGKERELVAAITFSGGSTYYADSVKGRFTISRDNAKNTVYLQMNSLKPEDTAVYYCAARWRYRYYSWGQGTQVTVSS | high polyreactivity
24 | QVQLVESSGGLVQAGGSLRLSCAASGRIFQAYAMGWYRQAPGKEREMVAAITGGGSTNYADSVKGRFTISRDNAKNTVYLQMNSLKPEDTAVYYCNAVTGTYGWGPQAREQEDYWGQGTQVTVSS | low polyreactivity
25 | QVQLVESSGGLVQAGGSLSLICAASVLIFNFYSMGWYRQAPGKERELVDAISWNAGSTYYADSVKGRFTISRDNAKNTVYLQMNSLKPEDTAVYYCAVLPGRYDKTASHYDYWGQGTQVTVSS | low polyreactivity
26 | QVQLVESVGCLVQAGGSLRLSCAASGFIFDYYAMGRYRHGPGKERELVAGISWSGGSTYYADSVKGRFTISSDNSKNTVYLQMNSLIPEDTAVYYCNAEDSVPFYLYYYWGQGSQVTVSS | low polyreactivity
27 | QVQLVESVGCLVQAGGSLRLSCAATVSIFDRYAMGWNRQPPGKESELVAAISKSGGRTYYADSVKGRFTISRDNAKNTVYLQMNSLKPEDSAVYDCAADPLLGYLSHYYWGQGTQVTVSS | high polyreactivity
28 | QVQLVESVGDLVQAGGSLRLSCAASGRNFPVYAMGWYRQAPGKERELVAAITFRSGSTYYADSVKGRFTISRDNAKNTVYLQMNSLKPEDTAVYYCAADFSVQYVGYSAIEGYWGQGTQVTVSS | high polyreactivity
29 | QVQLVESVGGLDQAGGRLRLSCAASGFTIRPYVRRAYRQAPGTERELVAGISTGGSTYYADSVKGRFTISRDNAQNTVYLQMNRLKPEDTAVYDCAKRGKQYRKMNYWGQGTQVTVSS | high polyreactivity
30 | QVQLVESVGGLDQAGGSLRLSCAASALIFPRYDMGSYRQAPGKERELDAAITSGGGTYNADSVKGRFTISRDNAKITVYLQMNSLKPEDTAVYYCAAGPVFGGGGYDYWGQGTQVTVSS | low polyreactivity
31 | QVQLVESVGGLDQAGGSLRLSCAASGSIFVGYAMGWYRQAPGKERELVAAITRSGVSTYYADSVKGRFTISRDNAKNTVYLQMNSLKPEDTAVYYCAADPTYRYWRVPWYEYDYWGQGTQVTVSS | low polyreactivity
32 | QVQLVESVGGLDQAGGSLRLSCAASGSTFGGYAMGWYRQAPGKERELVAAISSSGTSTYYADSVKGRFTISRDNAKNTVYLQMNSLKPEDNAVYYCATDFSFFSRFDYWGQGTQVTVSS | low polyreactivity
33 | QVQLVESVGGLDQAGGSLRLSCAASGSTFKRYVMGWYRQAPGKERELVAAITWSGTRTYYADSVKGRFTLSRDNAKNTVYLQMNSLKPEDTAVYYCAARLYGGYDWGQGTQVTVSS | high polyreactivity
34 | QVQLVESVGGLDQAGGSLRLSCPASGRTFGKYAMGWYRQSPGKERELVARISRRGGTTYYADSVKGRFTISRDNAKNTVYLQLNSLKPEDTAVYYCNARRRDYRHWYDYWGQGTQVTVSS | high polyreactivity
35 | QVQLVESVGGLDQARGSLRLSCAASGFIYRYYPMGWYRQSPGKERELVASIDWSGGNTYYADSVKGRFTISRDKAKYTVYLQMNSLKPEDTAVYYCNRRGMDWGLGTQVTVSS | low polyreactivity
36 | QVQLVESVGGLFQAGGSIRLSCAASGRTFFVYAMGWYRQAPGKERVLVAVISFTVDSTFYEDSVKGRFTISRDNAKNTVYLQMNSLKPEDTAVYYCAADVRRVFSKYSYYLYFDLDYWGQGTQVTVSS | low polyreactivity
37 | QVQLVESVGGLGQAGGSLRLSCASSGFTFARYAMAWYIQAPGKERELVAAISGSGSTYYADSVKGRFTISRDNAKNSVYLQMNSLKTEDTAVYYCNAGNFGRFGFWGQGTQVTVSS | high polyreactivity
38 | QVQLVESVGGLLQAGGSLRLSCADSGSTFTTNVMGWYRQAPGKERELVAAISKRGGSTFYADSVKGRFTISRDNAKNTVYRQMNSLKPEDTAVYYCKALRRGVRDPYGYWGQGTQVTVSS | high polyreactivity
39 | QVQLVESVGGLLQAGGTLRLSCAASGITFLDYGRGWYRQATGKERELVATINSGGSTNYADSVKGRFTISRDNAKHTVYLLMNSLKAEDTAVYYCDADYGSDYPKGDYWGQGTQVTVTS | low polyreactivity
40 | QVQLVESVGGLVQAAGSLRLSCAASGRIFSPYAMGWYRQAPGKESELVAAISWSGGTTYYADSVKGRFTISRDNAKNTVYLQMNSLKPEDTAVYYCAADLGYQDPLDYYWGQGTQVTVSS | high polyreactivity
41 | QVQLVESVGGLVQAGGILRLSCAASGNTFPAYAMGWYRQAPGKERELVATISWSTGSTNYADSVKGRFTISRDTAKNTVYLQMNSLKPEDTAVYYCAASYWCYEYDYWGLGTQVTVSS | low polyreactivity
42 | QVQLVESVGGLVQAGGRLRLSCAASGRIFSFYAMGWYRPAPGKEREFVAAITYSGGSSYYADSVKGRFTNSRDNAKKTVYLQMNSLKPEDTAVYYCAARYRYITKYDYWGQGTQVTVSS | high polyreactivity
43 | QVQLVESVGGLVQAGGRLRLTCAASGFIFTHYAMVWYRQAPGKERELVAAISWNGGRTYYADSVKGRFTISRDNANITVYLQMNSLKPEDTAVYYCAARIYLSKSFNFWGQGTQVTVSS | high polyreactivity
